Values of other authors as cited in paper PMC2830912.

Target: Pol III alpha subunit (Escherichia coli) (UniProt P10443)
Sequence (P10443 whole entry): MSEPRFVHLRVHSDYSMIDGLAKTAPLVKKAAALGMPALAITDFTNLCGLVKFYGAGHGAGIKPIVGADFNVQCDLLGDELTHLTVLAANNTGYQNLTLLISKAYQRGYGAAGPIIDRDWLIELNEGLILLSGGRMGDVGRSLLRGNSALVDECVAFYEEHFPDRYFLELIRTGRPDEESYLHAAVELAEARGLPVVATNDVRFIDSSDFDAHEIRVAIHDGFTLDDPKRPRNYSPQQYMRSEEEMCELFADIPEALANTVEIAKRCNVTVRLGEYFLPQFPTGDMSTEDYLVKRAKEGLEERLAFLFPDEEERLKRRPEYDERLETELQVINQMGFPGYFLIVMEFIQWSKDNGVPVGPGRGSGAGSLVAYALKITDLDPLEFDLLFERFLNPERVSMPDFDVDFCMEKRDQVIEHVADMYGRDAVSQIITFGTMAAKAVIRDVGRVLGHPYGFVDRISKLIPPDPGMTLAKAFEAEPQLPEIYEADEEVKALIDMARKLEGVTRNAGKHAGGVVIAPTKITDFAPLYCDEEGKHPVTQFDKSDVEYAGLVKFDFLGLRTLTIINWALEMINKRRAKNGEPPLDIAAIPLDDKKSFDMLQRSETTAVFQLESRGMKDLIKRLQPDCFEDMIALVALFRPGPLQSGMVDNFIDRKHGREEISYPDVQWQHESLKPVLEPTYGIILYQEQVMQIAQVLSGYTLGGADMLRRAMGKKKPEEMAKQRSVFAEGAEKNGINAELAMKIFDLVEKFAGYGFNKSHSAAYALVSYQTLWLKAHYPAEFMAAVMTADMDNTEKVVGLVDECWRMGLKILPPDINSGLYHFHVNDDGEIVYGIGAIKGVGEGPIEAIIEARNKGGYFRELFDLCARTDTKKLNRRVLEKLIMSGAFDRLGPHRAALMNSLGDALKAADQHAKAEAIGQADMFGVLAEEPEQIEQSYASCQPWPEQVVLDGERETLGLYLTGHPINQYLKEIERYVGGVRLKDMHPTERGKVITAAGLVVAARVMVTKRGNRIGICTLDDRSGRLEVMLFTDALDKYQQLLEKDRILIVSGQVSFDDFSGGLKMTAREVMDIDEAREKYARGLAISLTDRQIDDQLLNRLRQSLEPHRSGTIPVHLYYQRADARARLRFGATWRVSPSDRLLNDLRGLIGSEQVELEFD

Sequence of DnaX tau subunit (P06710 2-643): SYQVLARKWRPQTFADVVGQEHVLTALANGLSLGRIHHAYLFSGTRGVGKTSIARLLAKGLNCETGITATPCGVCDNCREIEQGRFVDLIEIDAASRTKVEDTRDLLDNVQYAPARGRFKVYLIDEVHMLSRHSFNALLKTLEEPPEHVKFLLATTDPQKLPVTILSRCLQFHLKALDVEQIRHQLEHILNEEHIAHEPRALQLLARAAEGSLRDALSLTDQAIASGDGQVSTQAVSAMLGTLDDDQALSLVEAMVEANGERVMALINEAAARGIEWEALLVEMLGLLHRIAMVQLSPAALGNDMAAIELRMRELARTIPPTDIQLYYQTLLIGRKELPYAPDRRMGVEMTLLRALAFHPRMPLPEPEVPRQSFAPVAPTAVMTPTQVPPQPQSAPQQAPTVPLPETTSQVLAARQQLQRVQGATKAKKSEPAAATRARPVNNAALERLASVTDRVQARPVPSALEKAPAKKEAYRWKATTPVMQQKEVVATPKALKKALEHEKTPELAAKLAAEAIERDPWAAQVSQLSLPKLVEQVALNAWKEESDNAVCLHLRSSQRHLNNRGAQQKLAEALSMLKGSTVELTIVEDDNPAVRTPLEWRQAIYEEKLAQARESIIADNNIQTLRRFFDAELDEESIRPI

**Q.** For DnaX tau subunit (from UniProt P06710), which Kd is on record?
**A.** 0.07 nM
